tested on: K4 kissing-loop RNA reporter; test: apparent KD of K4 kissing-loop reporter; higher = weaker reporter binding; conditions: Eterna round: R107; input ligand: arginine 13.2 mM
Description: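 RNA-MaP round R107: designed RNA switches with theophylline, tryptophan, arginine or FMN aptamers are transcribed on-chip within common flanks. They are titrated with a labelled K4 kissing-loop RNA reporter in RNA-MaP buffer (100 mM Tris pH 7.5, 80 mM KCl, 4 mM MgCl2), without ligand or with the indicated ligand. Median apparent KD per design.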
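Further: bound reporter read as fluorescence of individual clusters on recovered sequencing chips by microscopy, with normalized cluster intensities fitted with a binding model.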

Sequence | apparent KD of K4 kissing-loop reporter [nM]
CGAAAUAGAACGGCCGCCACUGUAAGUCCUGACAGUAAGUGAUGUUUGAAAGAUUCGGGUAUUCGCAGGACCGGGUUCGUCAUAA [theeternabot_sameState_KL_Trp_B_13] | 844
AUGUUGAGCGGAAGGAGCGGCUGAGCCAGUGAUGUUGGUUAAUCCAAGUGAUGUUGGAAAAGCCAGGUAGGUCGCCGUUUUACGU [whbob_SS_Arginine_B_2t145] | 597
CGCAGUGAUGUUGCUAUUAUUCUUGAUUAACGAGGACCGGUACGGCCGCCACUCGAUUUCUAUCUGAUCCAGUGUUUUGUUGAGU [#22 K4 Tryptophan A Exclusion] | 364
CCGCCGGUCGGAAGGAGCGCACGCCAGAGUGAUGUUCUGGCGCGGGCAUUUUGUGCCCGCGUGCAGGUAGGUCGCCGAUUCUGGC [Quxeorti] | 414
GUAUCAGUGAUGUUGAUAGGCGAGCGGGAUACCAGCCAAGACUCAGGCCCUUGGCAGCCCACAUAUCCCACGUAGAUAGUAGCUC [Same State - Theophylline A (Freestyle 16)] | 105
UACCCGUGCUACUCCAUCCAUGCCACACCGCGAGGACCGGUACGGCCGCCACUCGUCGGAAAGUGAUGUUUUCAAACAAAGUUGC | 93.4
AAGAAGGUCAAAGACCUUCGUGCUCGUGAUACCAGUCGCGAAAGCGGCCCUUGGCAGCACGGCAGUGAUGUUGCCAAGAGCACAA [#13 K4 Theophylline A Same State] | 86.6
AUAGACUUGCAGUGAUGUUGCAAGUGAGACUAGGAUAUCAGGAAGCUGAGAAGGAGUCAUCUCCUUCAGACAUCACUAUGAAGGA [whbob_SS_FMNA__2th180] | 180
CUGUCCUACGAAGGAUAUGCUGAUGGGAUCAAACAGUGAUGUUGUUAUGAACUUAGGCUUAUGUGCGCAGAAGGUCGUGGCGACG [theeternabot_sameState_KL_FMN_B_42] | 396
UCGGCAAAGUCGGCCGCCACUCCGGGCCCUAUAAAUGGGCGCAGUGAUGUUGCGGCUAGGCCUCUGAGGACCGGGACUUUGUAGA [Gebive] | 91.7
UUUAUAUAGUCGGCCGCCACUGAUUUUUUUAUAUGUUUAUGUUUAUACGAGUGAUGUUCGAUAUACAGGACCGGGACUUUUGUUA [JR_SSTryptoB_Sub018] | 237
CGGAUGUAGUGAUGUUAUAUUAGAUGUAGACGAGGACCGGUACGGCCGCCACUCGAAACGGCUGCUAGCGCGUUGCGAGGUGUGC [ExTryptoA.Ck] | 525
AGUAAUCUCACGGCCGCCACUGUUUAUUGUUUUUAUAGUUAUAAAUCUUGCCAGUGAUGUUGGUACAGGACCGGGUGAGUUAAUA [#25 K4 Tryptophan B Same State] | 360
UGACUGGACUGAAGGAGCGCGCGAGACAAAGUCUCGAACUCGUAGUGAUGUUAGGAAAUAACGCAGGUAGGUCGCAGUCUAGUCU | 417
AAAUUCUUUUUUUUAUUUAACUUUUCAGAAGGAGCGUGGUAGUUCACAGGUAGGUCGCUGAAUUUUGGACUAGUGAUGUUAGUUA [JR_SSArginiA_Sub006] | 214
GGAGGAGAAUAUGAUACCAGCAGAGAGAGAGAGGAAGUAUAGUGAUGUUAUAUGAGAGAAUGCCCUUGGCAGCAUAAGAAGAAGG [SSTheophylB.A] | 105
UAGUCCUAGUGAUGGUUAUCACGUGGUGGGCGAGGACCGGUACGGCCGCCACUCGACUUUGCAGUGAUGUUGCAAACCGGACAAU [Exclusion - Tryptophan A (Freestyle 18)] | 278

Sequence | apparent KD of K4 kissing-loop reporter [nM]
GUGCAGUGAUGUUGCACGAGGAAAGACGAUACCAGCCGUAAAUAAGGCCCUUGGCAGCGUAGGCUAGCAUAAGGUAUGCUAGUCC [Atesermace] | 109
GUAGGAUGAGGAGGAGGAUGAAUUACUGAAGGAGCGCAUAGAAAUGCAGGUAGGUCGCGGUAAAGAAGUAUAGUGAUGUUAUAUA [SSArgA.F] | 420
CCCAAAAUAUGCAGUGAUGUUGCAACCGAUACCAGUAUCGAAAGAUACCCUUGGCAGCGGAAAACCGCUACGUAAUUUAAAAGGG [Ex Theophylline A K4 17] | 318
AAUAAAAUCACGGCCGCCACUGGUACUAGUAUUAGCAGUGAUGUUGCUAUGUAUAAUUUAUUAAAUAGGACCGGGUGAAUAUUUA [#27 K4 Tryptophan B Exclusion] | 281
GGUAGCAUGGCGGCCGCCACUAAUACUUCGUAGCCUGUAGCCGGCUUCGUAGAGUGAUGUUCUAUUAGGACCGGGCCAUGCUACC | 520
UGAGUUUGAGUGAUGUUCAGGCAUUGGUACGAGGAUAUCGAGGAGUUGAGAAGGCGUACUGCUCAACUUUGUAUGAAUACAUACA [FMN A Ex t2b] | 73.4
AUUUUUUUGUCAGGAUAUUAGUGUUGGUUUGGUUUGUUAGUGAUGUUGAUAUUUGUUUUAUGUAUUUAAGAAGGGAUUUAGCGGU [wxooemullin] | 379
UGAUACCAGACUGAUACCAGCCAGUGAUGUUGGCUAAUCCGAGAAGGAGUCAAAGACUCCGGCCCUUGGCAGCAGUCUGGUAUCU [TheoBX 4 #SwitchBubble #StaticStem] | 117
GAACGGAGUGAUGUUCCGUUGACGAUCCUACGAGGACCGGUACGGCCGCCACUCGUAUUGCAGUGAUGUUGCAACCAGCCGUACU [Exclusion Tryptophan A GF 10] | 112
UGUCAUUGGUCGGCCGCCACUAGGACCGGGAUUUUUCUAGUGAUGUUAGUUUGGUCGGCCGCCACUAGGACCGGGACCGAUGACU [KL-SSTryp-B13 #DoubleAptamer] | 345
CCACCAAGCACGGCCGCCACUAAAUCUGCAAGUAACCUAAAGUGAUGUUUUAUCUUGCGUCAGACUAGGACCGGGUGUCAAGUUA [theeternabot_sameState_KL_Trp_B_45] | 408
UUAGGAGUGGGAGGAUAUCCUGGUGUGGGUGAUGUUAGUGAUGUUGAAAGUGUAGUGAUGUUGUGCGGAGAAGGUCCAGUGUUGA [BDazzled - #10 - Exc. FMN B] | 295
AAUACAGUGUCGGCCGCCACUGUAACAUGCCAUGAGACAUGAGACAUGAGUGAUGUUCAUGUAGACAGGACCGGGACUCAUGUAU [KL-SSTryp-B3 #analogue] | 373
GAAAGAAAGUAUGAUACCAGACACCCGAGUGAUGUUCGGAGCAGUGUGAUGUUCUUUUAAGUCCCUUGGCAGCAUAAAAGAAAAG [whbob_SS_Theo_B_sa84] | 142
UAUUUAAUUUUUAAUUUUUAAAUUGCUGAUACCAGAGCCAAUUGGCUCCCUUGGCAGCGGAUCGAGUGAUGUUCGUAUAAUUUAA [AK1 SS Theophylline A] | 66.4
CUGGGUUGACGAAAAGUCAACAAAAGAGAAGGAGCGCACGAAAGUGCAGGUAGGUCGCUCAAUCCAGUGAUGUUGGGUCGUCCAG [#OpenEnded 11 #K4Late] | 192

same assay, conditions: Eterna round: R107; input ligand: none

Sequence | apparent KD of K4 kissing-loop reporter [nM]
AGUGCACUGUCAGGAUAUAUACAGUGAUGUUGUGUAUGUCAGCAAGUCAAAGACUUGCUAUUUUGUGUAGAAGGGACUGUGUACA [whbob_Ex_FMNB__2th221] | 176
GCCGUAGAUUGAAGGAGCGGCAUUAACGAUGUUCUGGUAGUGAUGUUACCUCAGCAGACAUGCCAGGUAGGUCGCAAUCUACGGC | 93.6
AGUCCACUCUAAAGAGUGGACCUAAGGGAUACCAGUGAUGUUGGUCACCCUUGGCAGCCCUCUGUCAUCGAUAAAGAUGGCAGGA | 113
AGGCGGCAAGAUUGAUUGGAAAGUAAUCGACGAGGACCGGUACGGCCGCCACUCGAACACCAGUGAUGUUGGUCUGGCUUAAGCC [Exclusion Tryptophan A GF 20] | 435
ACGCUGUGAAUAACACAGCGAAUAAAUUCGCGAGGACCGGUACGGCCGCCACUCGCUAACUGCGAGUGAUGUUCGAUAAUAAAAU [Mat - Mod of OpenEnded 3 - D13] | 172
UGUCAUUGGUCGGCCGCCACUUCAUAAAGAGUGAUGUUCUAAAAGACGGAUCGAAAGAUCUGUCGAAGGACCGGGACCGAUGACU [TrypBS 18 #SwitchBubble #StaticStem] | 1200
UGUCAUGGAAACAUGAACGUUAAAAUAAAUCGAGGACCGGUACGGCCGCCACUCGUAUAGCGGUCAGUGAUGUUGACUGUAAUAA [KL-SSTryp-A form2 sub10] | 110
AAUUUAGUGACGGCCGCCACUAUGGUGAUUUAUUUGUUUGAGUGAUGUUUUGAUGUUUGAUUUUGUAGGACCGGGUUAGGUGAUG [aaacmullin] | 364
UGUACCGAGGCAGGAUAUGUCGUCGAAAGACGAAAUGGAGUGAUGUUCCUUAAACUGCGAAAGCAGACAGAAGGGUCUUGGUACU [FmnBS 29 G10+U76] | 181
UGUAUGUGAUUUGAUACCAGACAAGCAGGUGUGACAAGAGUGAUGUUCUUGAUGGUUUGGGUCCCUUGGCAGCAAAUCGCAUACU [KL-SSTheoB16] | 178
CGAAAUAGAACGGCCGCCACUGUAAGUCCUGACAGUAAGUGAUGUUUGAAAGAUUCGGGUAUUCGCAGGACCGGGUUCGUCAUAA [theeternabot_sameState_KL_Trp_B_13] | 1260
AUGUUGAGCGGAAGGAGCGGCUGAGCCAGUGAUGUUGGUUAAUCCAAGUGAUGUUGGAAAAGCCAGGUAGGUCGCCGUUUUACGU [whbob_SS_Arginine_B_2t145] | 1190
CGCAGUGAUGUUGCUAUUAUUCUUGAUUAACGAGGACCGGUACGGCCGCCACUCGAUUUCUAUCUGAUCCAGUGUUUUGUUGAGU [#22 K4 Tryptophan A Exclusion] | 396
CCGCCGGUCGGAAGGAGCGCACGCCAGAGUGAUGUUCUGGCGCGGGCAUUUUGUGCCCGCGUGCAGGUAGGUCGCCGAUUCUGGC [Quxeorti] | 427
GUAUCAGUGAUGUUGAUAGGCGAGCGGGAUACCAGCCAAGACUCAGGCCCUUGGCAGCCCACAUAUCCCACGUAGAUAGUAGCUC [Same State - Theophylline A (Freestyle 16)] | 128
UACCCGUGCUACUCCAUCCAUGCCACACCGCGAGGACCGGUACGGCCGCCACUCGUCGGAAAGUGAUGUUUUCAAACAAAGUUGC | 142
AAGAAGGUCAAAGACCUUCGUGCUCGUGAUACCAGUCGCGAAAGCGGCCCUUGGCAGCACGGCAGUGAUGUUGCCAAGAGCACAA [#13 K4 Theophylline A Same State] | 190
AUAGACUUGCAGUGAUGUUGCAAGUGAGACUAGGAUAUCAGGAAGCUGAGAAGGAGUCAUCUCCUUCAGACAUCACUAUGAAGGA [whbob_SS_FMNA__2th180] | 251
CUGUCCUACGAAGGAUAUGCUGAUGGGAUCAAACAGUGAUGUUGUUAUGAACUUAGGCUUAUGUGCGCAGAAGGUCGUGGCGACG [theeternabot_sameState_KL_FMN_B_42] | 264
UCGGCAAAGUCGGCCGCCACUCCGGGCCCUAUAAAUGGGCGCAGUGAUGUUGCGGCUAGGCCUCUGAGGACCGGGACUUUGUAGA [Gebive] | 112
UUUAUAUAGUCGGCCGCCACUGAUUUUUUUAUAUGUUUAUGUUUAUACGAGUGAUGUUCGAUAUACAGGACCGGGACUUUUGUUA [JR_SSTryptoB_Sub018] | 238
